Measurements as given in patent US20240026334A1.

Target: type I collagen
Assay: cell-based or functional assay

elastin
unbound DNA in DNA binding assay (1:1 elastin to collagen): 0.077 µM
unbound DNA in DNA binding assay (1:2 elastin to collagen): 0.116 µM
